{
  "source": "paper PMC5702604",
  "about": "(2017)",
  "parents": {"B1": {"name": "Piezo1-GST fusion protein (mouse Piezo1) [mouse] / Flag-tagged SERCA2 (SERCA2b) [not stated] (parent complex)", "chain 1": "MEPHVLGAGLYWLLLPCTLLAASLLRFNALSLVYLLFLLLLPWLPGPSRHSIPGHTGRLLRALLCLSLLFLVAHLAFQICLHTVPHLDQFLGQNGSLWVKVSQHIGVTRLDLKDIFNTTRLVAPDLGVLLASSLCLGLCGRLTRKAGQSRRTQELQDDDDDDDDDDEDIDAAPAVGLKGAPALATKRRLWLASRFRVTAHWLLMTSGRTLVIVLLALAGIAHPSAFSSIYLVVFLAICTWWSCHFPLSPLGFNTLCVMVSCFGAGHLICLYCYQTPFIQDMLPPGNIWARLFGLKNFVDLPNYSSPNALVLNTKHAWPIYVSPGILLLLYYTATSLLKLHKSCPSELRKETPREDEEHELELDHLEPEPQARDATQGEMPMTTEPDLDNCTVHVLTSQSPVRQRPVRPRLAELKEMSPLHGLGHLIMDQSYVCALIAMMVWSIMYHSWLTFVLLLWACLIWTVRSRHQLAMLCSPCILLYGLTLCCLRYVWAMELPELPTTLGPVSLHQLGLEHTRYPCLDLGAMLLYLLTFWLLLRQFVKEKLLKKQKVPAALLEVTVADTEPTQTQTLLRSLGELVTGIYVKYWIYVCAGMFIVVSFAGRLVVYKIVYMFLFLLCLTLFQVYYTLWRKLLRVFWWLVVAYTMLVLIAVYTFQFQDFPTYWRNLTGFTDEQLGDLGLEQFSVSELFSSILIPGFFLLACILQLHYFHRPFMQLTDLEHVPPPGTRHPRWAHRQDAVSEAPLLEHQEEEEVFREDGQSMDGPHQATQVPEGTASKWGLVADRLLDLAASFSAVLTRIQVFVRRLLELHVFKLVALYTVWVALKEVSVMNLLLVVLWAFALPYPRFRPMASCLSTVWTCIIIVCKMLYQLKIVNPHEYSSNCTEPFPNNTNLQPLEINQSLLYRGPVDPANWFGVRKGYPNLGYIQNHLQILLLLVFEAVVYRRQEHYRRQHQQAPLPAQAVCADGTRQRLDQDLLSCLKYFINFFFYKFGLEICFLMAVNVIGQRMNFMVILHGCWLVAILTRRRREAIARLWPNYCLFLTLFLLYQYLLCLGMPPALCIDYPWRWSKAIPMNSALIKWLYLPDFFRAPNSTNLISDFLLLLCASQQWQVFSAERTEEWQRMAGINTDHLEPLRGEPNPIPNFIHCRSYLDMLKVAVFRYLFWLVLVVVFVAGATRISIFGLGYLLACFYLLLFGTTLLQKDTRAQLVLWDCLILYNVTVIISKNMLSLLSCVFVEQMQSNFCWVIQLFSLVCTVKGYYDPKEMMTRDRDCLLPVEEAGIIWDSICFFFLLLQRRIFLSHYFLHVSADLKATALQASRGFALYNAANLKSINFHRQIEEKSLAQLKRQMKRIRAKQEKYRQSQASRGQLQSKDPQDPSQEPGPDSPGGSSPPRRQWWRPWLDHATVIHSGDYFLFESDSEEEEEALPEDPRPAAQSAFQMAYQAWVTNAQTVLRQRRERARQERAEQLASGGDLNPDVEPVDVPEDEMAGRSHMMQRVLSTMQFLWVLGQATVDGLTRWLRAFTKHHRTMSDVLCAERYLLTQELLRVGEVRRGVLDQLYVGEDEATLSGPVETRDGPSTASSGLGAEEPLSSMTDDTSSPLSTGYNTRSGSEEIVTDAGDLQAGTSLHGSQELLANARTRMRTASELLLDRRLHIPELEEAERFEAQQGRTLRLLRAGYQCVAAHSELLCYFIIILNHMVTASAASLVLPVLVFLWAMLTIPRPSKRFWMTAIVFTEVMVVTKYLFQFGFFPWNSYVVLRRYENKPYFPPRILGLEKTDSYIKYDLVQLMALFFHRSQLLCYGLWDHEEDRYPKDHCRSSVKDREAKEEPEAKLESQSETGTGHPKEPVLAGTPRDHIQGKGSIRSKDVIQDPPEDLKPRHTRHISIRFRRRKETPGPKGTAVMETEHEEGEGKETTERKRPRHTQEKSKFRERMKAAGRRLQSFCVSLAQSFYQPLQRFFHDILHTKYRAATDVYALMFLADIVDIIIIIFGFWAFGKHSAATDIASSLSDDQVPQAFLFMLLVQFGTMVIDRALYLRKTVLGKLAFQVVLVVAIHIWMFFILPAVTERMFSQNAVAQLWYFVKCIYFALSAYQIRCGYPTRILGNFLTKKYNHLNLFLFQGFRLVPFLVELRAVMDWVWTDTTLSLSNWMCVEDIYANIFIIKCSRETEKKYPQPKGQKKKKIVKYGMGGLIILFLIAIIWFPLLFMSLIRSVVGVVNQPIDVTVTLKLGGYEPLFTMSAQQPSIVPFTPQAYEELSQQFDPYPLAMQFISQYSPEDIVTAQIEGSSGALWRISPPSRAQMKQELYNGTADITLRFTWNFQRDLAKGGTVEYTNEKHTLELAPNSTARRQLAQLLEGRPDQSVVIPHLFPKYIRAPNGPEANPVKQLQPDEEEDYLGVRIQLRREQVGTGASGEQAGTKASDFLEWWVIELQDCKADCNLLPMVIFSDKVSPPSLGFLAGYGIVGLYVSIVLVVGKFVRGFFSEISHSIMFEELPCVDRILKLCQDIFLVRETRELELEEELYAKLIFLYRSPETMIKWTRERE", "chain 2": "MENAHTKTVEEVLGHFGVNESTGLSLEQVKKLKERWGSNELPAEEGKTLLELVIEQFEDLLVRILLLAACISFVLAWFEEGEETITAFVEPFVILLILVANAIVGVWQERNAENAIEALKEYEPEMGKVYRQDRKSVQRIKAKDIVPGDIVEIAVGDKVPADIRLTSIKSTTLRVDQSILTGESVSVIKHTDPVPDPRAVNQDKKNMLFSGTNIAAGKAMGVVVATGVNTEIGKIRDEMVATEQERTPLQQKLDEFGEQLSKVISLICIAVWIINIGHFNDPVHGGSWIRGAIYYFKIAVALAVAAIPEGLPAVITTCLALGTRRMAKKNAIVRSLPSVETLGCTSVICSDKTGTLTTNQMSVCRMFILDRVEGDTCSLNEFTITGSTYAPIGEVHKDDKPVNCHQYDGLVELATICALCNDSALDYNEAKGVYEKVGEATETALTCLVEKMNVFDTELKGLSKIERANACNSVIKQLMKKEFTLEFSRDRKSMSVYCTPNKPSRTSMSKMFVKGAPEGVIDRCTHIRVGSTKVPMTSGVKQKIMSVIREWGSGSDTLRCLALATHDNPLRREEMHLEDSANFIKYETNLTFVGCVGMLDPPRIEVASSVKLCRQAGIRVIMITGDNKGTAVAICRRIGIFGQDEDVTSKAFTGREFDELNPSAQRDACLNARCFARVEPSHKSKIVEFLQSFDEITAMTGDGVNDAPALKKAEIGIAMGSGTAVAKTASEMVLADDNFSTIVAAVEEGRAIYNNMKQFIRYLISSNVGEVVCIFLTAALGFPEALIPVQLLWVNLVTDGLPATALGFNPPDLDIMNKPPRNPKEPLISGWLFFRYLAIGCYVGAATVGAAAWWFIAADGGPRVSFYQLSHFLQCKEDNPDFEGVDCAIFESPYPMTMALSVLVTIEMCNALNSLSENQSLLRMPPWENIWLVGSICLSMSLHFLILYVEPLPLIFQITPLNVTQWLMVLKISLPVILMDETLKFVARNYLEPGKECVQPATKSCSFSACTDGISWPFVLLIMPLVIWVYSTDTNFSDMFWS"}},
  "data": [
    {"variants_of": "B1", "test": "GST pull-down, western blot quantification; co-expressed Flag-SERCA2; repeated 3 times; mean ± s.e.m.; parent: 1; read off a plot", "values": [
      {"variant": "chain 1 E2172A, chain 1 K2173A, chain 1 K2174A, chain 1 Y2175A, chain 1 P2176A, chain 1 Q2177A, chain 1 P2178A, chain 1 K2179A, chain 1 G2180A, chain 1 Q2181A", "ratio to parent": "~0.4"},
      {"variant": "chain 1 K2182A, chain 1 K2183A, chain 1 K2184A, chain 1 K2185A", "ratio to parent": "~0.3"}
    ]}
  ]
}
